Results reported in patent US20240368285A1 (HEFEI TG IMMUNOPHARMA, published 2024).

How the values were obtained:
MICA005α3-Fc = biological target: T1, MICA005α3-Fc (human); test: ELISA on coated MICA*005 α3-Fc (1 µg/ml), HRP anti-human Fab secondary, OD450
T1 construct: also called MICA*005-Fc; domain α3 of MICA-005 Fc fusion protein
Procedure: (§1) After the antibodies were added, signal intensity was used for judging the binding characteristics of the antibodies and MICA and MICB.
(§2) The fusion proteins (produced in the Applicant's laboratory; an amino acid sequence of MICA002α3-Fc is as set forth in SEQ ID NO: 22; an amino acid sequence of MICA005α3-Fc is as set forth in SEQ ID NO: 24; an amino acid sequence of MICA008α3-Fc is as set forth in SEQ ID NO: 25; an amino acid sequence of MICA004α3-Fc is as set forth in SEQ ID NO: 23; an amino acid sequence of MICB001α3-Fc is as set forth in SEQ ID NO: 26; and an amino acid sequence of MICB005α3-Fc is as set forth in SEQ ID NO: 27) were diluted to a concentration of 1 μg/ml with PBS and then added into a 96-well plate in a volume of 100 μl/well. The plate was placed at 4° C. overnight. The PBS in the 96-well plate was removed by sucking. After the plate was washed with PBST (that is, PBS having a pH value of 7.2 included 0.1 volume % of Tween 20) for 6 times, PBS containing 10% of BSA was added in a volume of 200 μl/well. The plate was incubated at 37° C. for 2 hours for blocking. The blocking solution was removed. […]

[1] = biological target: T2, MICA protein (SPR analyte) (human, UniProt Q29983 24-308, limits assumed); test: SPR, Biacore 8K, antibody captured on protein A chip, MICA as analyte
T2 construct: also called major histocompatibility complex class I chain related polypeptide A
T2 sequence: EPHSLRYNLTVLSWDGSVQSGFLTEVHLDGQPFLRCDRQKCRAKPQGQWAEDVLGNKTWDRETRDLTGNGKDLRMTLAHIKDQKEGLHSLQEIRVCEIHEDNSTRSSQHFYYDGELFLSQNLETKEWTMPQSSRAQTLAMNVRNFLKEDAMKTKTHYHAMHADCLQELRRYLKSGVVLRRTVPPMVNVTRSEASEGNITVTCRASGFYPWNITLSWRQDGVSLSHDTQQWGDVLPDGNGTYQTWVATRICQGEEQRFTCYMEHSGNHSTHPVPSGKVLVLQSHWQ
Procedure: In a Biacore 8K (Cytiva) system, the antibody was diluted to a concentration of 10 µg/mL with running buffer (HBS-EP), and the antibody was conjugated onto a protein A (Cytiva, 29127556) chip at a flow rate of […].
Kinetic and affinity data of binding of the maternal antibody h5A1 and the affinity maturation antibody h5A1002 and MICA were detected.

MICA008α3-Fc = biological target: T3, MICA008α3-Fc (human); test: ELISA on coated MICA*008 α3-Fc (1 µg/ml), HRP anti-human Fab secondary, OD450
T3 construct: also called MICA*008-Fc; domain α3 of MICA-008 Fc fusion protein
T3 sequence (chain, as listed by the source limits assumed): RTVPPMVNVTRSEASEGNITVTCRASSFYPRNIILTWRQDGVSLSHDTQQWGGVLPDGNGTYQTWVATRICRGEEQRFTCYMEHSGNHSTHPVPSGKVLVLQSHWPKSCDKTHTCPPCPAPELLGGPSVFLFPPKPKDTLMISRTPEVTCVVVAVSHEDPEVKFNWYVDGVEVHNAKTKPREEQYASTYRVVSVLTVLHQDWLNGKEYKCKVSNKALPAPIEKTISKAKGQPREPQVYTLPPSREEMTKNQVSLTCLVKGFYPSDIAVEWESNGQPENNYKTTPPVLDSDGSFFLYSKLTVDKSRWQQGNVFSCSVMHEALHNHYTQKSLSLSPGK
Procedure: as §1, §2

MICA002α3-Fc = biological target: T4, MICA002α3-Fc (human); test: ELISA on coated MICA*002 α3-Fc (1 µg/ml), HRP anti-human Fab secondary, OD450
T4 construct: Produced in the Applicant's laboratory; also called MICA*002-Fc; domain α3 of MICA-002 Fc fusion protein
T4 sequence (chain, as listed by the source limits assumed): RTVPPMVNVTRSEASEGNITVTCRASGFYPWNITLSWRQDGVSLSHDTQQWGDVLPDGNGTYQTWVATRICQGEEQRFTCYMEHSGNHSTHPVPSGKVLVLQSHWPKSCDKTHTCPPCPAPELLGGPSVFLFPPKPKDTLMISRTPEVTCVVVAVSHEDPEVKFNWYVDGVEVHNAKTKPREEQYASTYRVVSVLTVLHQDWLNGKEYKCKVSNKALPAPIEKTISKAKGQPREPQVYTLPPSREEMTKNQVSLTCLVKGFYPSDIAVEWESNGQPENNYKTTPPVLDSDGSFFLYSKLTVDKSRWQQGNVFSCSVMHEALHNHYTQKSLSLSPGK
Procedure: as §1, §2

MICA004α3-Fc = biological target: T5, MICA004α3-Fc (human); test: ELISA on coated MICA*004 α3-Fc (1 µg/ml), HRP anti-human Fab secondary, OD450
T5 construct: also called MICA*004-Fc; domain α3 of MICA-004 Fc fusion protein
T5 sequence (chain, as listed by the source limits assumed): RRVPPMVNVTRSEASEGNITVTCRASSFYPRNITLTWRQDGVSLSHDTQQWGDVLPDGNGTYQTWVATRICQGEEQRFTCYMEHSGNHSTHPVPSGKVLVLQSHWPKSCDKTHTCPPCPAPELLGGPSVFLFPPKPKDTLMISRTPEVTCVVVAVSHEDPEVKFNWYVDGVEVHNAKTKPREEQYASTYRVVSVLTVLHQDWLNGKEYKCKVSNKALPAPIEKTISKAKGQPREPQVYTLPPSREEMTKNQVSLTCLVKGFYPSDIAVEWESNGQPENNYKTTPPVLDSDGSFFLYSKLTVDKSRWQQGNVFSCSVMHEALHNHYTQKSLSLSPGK
Procedure: as §1, §2

[2] = biological target: T6, MICA on human tumor cells (A-375, A549, HCT-15, MDA-MB-231) (human, UniProt Q29983 24-383); test: flow cytometry on HCT-15 cells, Alexa-647 goat anti-human secondary, average fluorescence intensity
T6 construct: whole, on cells
T6 sequence (looked up): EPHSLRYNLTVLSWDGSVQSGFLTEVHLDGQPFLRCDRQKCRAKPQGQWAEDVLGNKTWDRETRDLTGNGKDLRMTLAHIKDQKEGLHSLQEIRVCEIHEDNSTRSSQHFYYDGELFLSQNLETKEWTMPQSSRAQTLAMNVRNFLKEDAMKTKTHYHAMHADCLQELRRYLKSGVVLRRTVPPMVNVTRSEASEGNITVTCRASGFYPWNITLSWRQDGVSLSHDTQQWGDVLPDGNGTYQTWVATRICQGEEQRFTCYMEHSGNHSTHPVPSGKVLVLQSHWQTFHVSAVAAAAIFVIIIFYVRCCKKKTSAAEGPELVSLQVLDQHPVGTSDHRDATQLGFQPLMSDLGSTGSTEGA
Procedure: (1) Tumor cells were diluted to a density of 2×10⁶/mL with PBS and then added into a 1.5 ml EP tube in a volume of 100 l/tube. 10 l/tube of goat serum was added into the EP tube; and blocking was conducted at 4° C. for 30 min. Antibody h5A1 (having a heavy chain sequence as set forth in SEQ ID NO: 11 and a light chain sequence as set forth in SEQ ID NO: 12), antibody h5A1002 (having a heavy chain sequence as set forth in SEQ ID NO: 13 and a light chain sequence as set forth in SEQ ID NO: 14), and control IgG1 (purchased from Biointron) were gradient-diluted (at a highest working concentration of 50 μg/ml, 10 gradients, diluted by 3 times for each gradient) and added. The tube was incubated at 4° C. for 30 min. 1 mL of PBS was added into the EP tube, and centrifugation was conducted 4° C. at a rate of 3,500 rpm for 5 min. The supernatant was removed. The EP tube was washed once with the PBS. The supernatant was removed after centrifugation. The cells were resuspended with PBS in a volume of 100 l/tube. An Alexa-647 labeled goat anti-human secondary antibody (purchased from Jackson lab) was added into the tube in a volume of 1 l/tube; and the plate was incubated in the dark at 4° C. for 30 min. The tube was washed twice with PBS, and the supernatant was removed after centrifugation. […]

MICB001α3-Fc = biological target: T7, MICB001α3-Fc; test: ELISA on coated MICB*001 α3-Fc (1 µg/ml), HRP anti-human Fab secondary, OD450
T7 construct: also called MICB*001-Fc; domain α3 of MICB-001 Fc fusion protein
T7 sequence (chain, as listed by the source limits assumed): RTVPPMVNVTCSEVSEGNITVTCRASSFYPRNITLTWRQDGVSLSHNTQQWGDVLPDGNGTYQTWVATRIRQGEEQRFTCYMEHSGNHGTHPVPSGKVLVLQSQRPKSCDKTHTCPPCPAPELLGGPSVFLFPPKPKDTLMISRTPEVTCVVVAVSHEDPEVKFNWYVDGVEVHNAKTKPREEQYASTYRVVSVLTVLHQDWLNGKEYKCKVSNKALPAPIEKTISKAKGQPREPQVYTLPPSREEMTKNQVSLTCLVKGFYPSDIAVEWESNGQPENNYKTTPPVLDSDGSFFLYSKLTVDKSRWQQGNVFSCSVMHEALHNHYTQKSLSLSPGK
Procedure: as §1, §2

MICB005α3-Fc = biological target: T8, MICB005α3-Fc; test: ELISA on coated MICB*005 α3-Fc (1 µg/ml), HRP anti-human Fab secondary, OD450
T8 construct: also called MICB*005-Fc; domain α3 of MICB-005 Fc fusion protein
T8 sequence (chain, as listed by the source limits assumed): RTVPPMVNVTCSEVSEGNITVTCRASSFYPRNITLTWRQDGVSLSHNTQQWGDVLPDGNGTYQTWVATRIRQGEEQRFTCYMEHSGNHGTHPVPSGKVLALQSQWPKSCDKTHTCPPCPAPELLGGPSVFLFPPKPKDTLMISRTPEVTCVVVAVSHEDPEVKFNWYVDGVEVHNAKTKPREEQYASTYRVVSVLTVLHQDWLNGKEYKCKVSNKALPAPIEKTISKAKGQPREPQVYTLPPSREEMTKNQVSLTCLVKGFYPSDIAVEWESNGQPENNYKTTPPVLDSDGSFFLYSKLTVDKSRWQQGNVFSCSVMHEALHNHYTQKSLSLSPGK
Procedure: as §1, §2

T1 sequence (chain, as listed by the source limits assumed): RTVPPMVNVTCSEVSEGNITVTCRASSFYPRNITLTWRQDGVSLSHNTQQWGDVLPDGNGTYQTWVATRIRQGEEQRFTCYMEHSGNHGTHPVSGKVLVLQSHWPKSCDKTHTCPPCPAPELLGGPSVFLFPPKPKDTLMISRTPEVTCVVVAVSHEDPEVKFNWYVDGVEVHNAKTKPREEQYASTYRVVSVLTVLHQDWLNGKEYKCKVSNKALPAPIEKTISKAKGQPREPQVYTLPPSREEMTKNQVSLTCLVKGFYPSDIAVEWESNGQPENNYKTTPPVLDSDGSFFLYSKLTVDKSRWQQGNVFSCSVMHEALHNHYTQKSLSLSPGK

- EC50 (read off the curve) (MICA005α3-Fc): ~0.4 µg/mL
- Kd [1]: 215 nM
- koff [1]: 0.000641 s⁻¹
- kon [1]: 2970 M⁻¹ s⁻¹
- binding result (MICA008α3-Fc): binds
- EC50 (read off the curve) (MICA002α3-Fc): ~0.3 µg/mL
- EC50 (read off the curve) (MICA004α3-Fc): ~0.07 µg/mL
- EC50 (read off the curve) [2]: ~3 µg/mL
- EC50 (read off the curve) (MICB001α3-Fc): ~0.07 µg/mL
- EC50 (read off the curve) (MICB005α3-Fc): ~0.05 µg/mL
B1: maternal humanized antibody h5A1 (antibody, human IgG1, kappa, V domains shown)
VH: QVQLQESGPGLVKPSETLSLTCTVSGFSLTTYGVHWIRQPPGKGLEWIGMIWTDGTTDYNAAFISRVTISVDTSKNQFSLKLSSVTAADTAVYYCARKGHGYYYAMDYWGQGTLVTVSS
VL: EIVLTQSPGTLSLSPGERATLSCTASSSVSSSYLHWYQQKPGQAPRLLIYSTSNLASGIPDRFSGSGSGTDFTLTISRLEPEDFAVYYCHQYHRSPFTFGQGTKLEIKR
notes: Human IgG1, kappa; The full chains are stated for the ELISA and flow cytometry; also called h5A1-hIgG1; maternal antibody h5A1
